Twelve sequences from the DeepSol protein solubility set can be followed below.

A short description of this data set: soluble on expression in E. coli; label from the status in PepcDB or PDB records.
Turning to “MGPVRFAPSILTADLARLGEAIREAEAAGVDWIHLDVMDGVFVPNLTFGPLLVEAVRRVTSLPLDVHLMIVKPERYLEDFAQAGADHITVHFEATYHPHRAVQKVKELGKKAGLAVNPGTPLEAFEPLLPDLDLALLMSVNPGFGGQRYLPTATERLRRLKAMRDRLNPACLIVVDGGINRDTVAEARRAGADVAVAGSALFNDKPVAENLKALRLALLG”, the “soluble on expression in E. coli” value is listed as “soluble”. Then “MAHHHHHHMIVASSLEVRNYGEWVRQVRAERIIVNCPDEMDVKAMCAWMKRDETKEKQAECWKEVKKHMYLLGPIPRHVFDEEAFTERCGAVKFALQSINDVTVKECFPRGGESPWCSEDPSHKPVRVVREIYEGSVILFNAPMCDCLEERTLKRLPSVAE”, with “not soluble”.

Take “MTYNVWNFGESNGRYSALTARGISKETCQKAGYWIAKVDGVMYQVADYRDQNGNIVSQKVRDKDKNFKTTGSHKSDALFGKHLWNGGKKIVVTEGEIDMLTVMELQDCKYPVVSLGHGASAAKKTCAANYEYFDQFEQIILMFDMDEAGRKAVEEAAQVLPAGKVRVAVLPCKDANECHLNGHDREIMEQVWNAGPWIPDGVVSALSLRERIREHLSSEESVGLLFSGCTGINDKTLGARGGEVIMVTSGSGMVMSTFVRQQALQWGTAMGKKVGLAMLEESVEETAEDLIGLHNRVRLRQSDSLKREIIENGKFDQWFDELFGNDTFHLYDSFAEAETDRLLAKLAYMRSGLGCDVIILDHISIVVSASGESDERKMIDNLMTKLKGFAKSTGVVLVVICHLKNPDKGKAHEEGRPVSITDLRGSGALRQLSDTIIALERNQQGDMPNLVLVRILKCRFTGDTGIAGYMEYNKETGWLEPSSYSGEEESHSESTDWSNDTDF”: the “soluble on expression in E. coli” value is given as “soluble”.

On to “MAHHHHHHMSQNKLYKTNYGYNNPILLNKNERNIKTYVNQETMTNKLLTTYNRSPLQSNYEHNIPKIIHSSTIKKQGVINENNGDKIYKPNYRDMNNLYNSKYVFSKNTPEYINGRKQMITVYDNIKNEERNKSINYYKNKNMIKIPSSYNSNNGNKIKSNNVKDGVLQLEKGSIQNVAKNMNTFHNKSNENGKFIKKLNNSNYKEVTSNVDEIRLLNKSLSAKISSSIKTNYEKSNILDHKKNTNVKVSKISIENKKYNIRKKENMKWAPKYNNNNNNNNNKDHKNMIIESVKVVKNPKEINKKKTKIVQNKYKNPLPSYICLHFHDNSLNLNNGLKIFNDMITVDKNQRMKKWNGYEWDVIEKDFHFLIKARYDNKGNIWCINKSYEVLKIMRNKLKNFGHLGKEEIIDIGFDKKNILWCINRKGQLLKWVKTKWDNIQYKGFHKLICFSFDKKGELWAINLKKELAIWNKKNKCWDEKYIKDNLKISCIDFDGDGKLWVVSNSGALLTYSKDQWINFGLVCLDELICISFKKLQE”, for which the “soluble on expression in E. coli” value is “not soluble”. Then “MGSDKIHHHHHHMTKHPLKSLAASVRAAIADPARTTFVGSDANPRFELFHAASSLCSQKVRTVLFEKQLPYRSNDMKILSSMGPDGVVPAEHYHAPYVGLRLIAGEEIGREFVSGYSGRTSVQTEGFDPCVVPLLVDYEASRVIADSRRICCYLDAVSRNPVQLVPEDADARALVMQQVDIVDRIPNGTLLYGFHPDADLRPEALRTVMESVYDYKVAALKAMIDANADNAELVSAYRAKIAKEQGGKSVRHDAALQRAARDHVAVLLADLDRLLGTSSPYLLGPHFSLGDVLWGVNLTRLAYLGLASMWKDRPNVIRYVNALLTRPSLRKEAVRATMDSMPPSRYFDVVSGTAEVASM”, with “not soluble”. For “MKTIEEIKSTPKTVMKKPELLAPAGNLEKLKIAVHYGADAVFLGGQEYGLRSNADNFTMEEIAEGVEFANRYGAKIYVTTNIIAHDENIEGLESYLRNLEKTGATGIIVADPLIIETCKEVAPKLEIHLSTQQSLSNYKAVEYWKEEGLDRVVLARETGAMEMREMKEKVDIEIEAFIHGAMCIAYSGRCTLSNHMTARDSNRGGCCQSCRWDYELLEVDDNGELDVFYNQGEVTPFAMSPKDLKLIESIPQMMDIGVDSLKIEGRMKSIHYIATVVSVYRKVIDAYAADPDNFKINPEWLIELDKCANRDTAPAFFEGTPGYEEQMFGQQQSKKSSFDFCGLVLDYNEDTKIATIQQRNNFKPGQEIEFFGPEIETFTQVVEAIYDEEGNSLDAARHPLQIVQIKVDRPIYPNNMMRKEIG”, the “soluble on expression in E. coli” value was “not soluble”. The value for “MRGLAVLVLLVFAVQVAAAEDFRPVVFVHGLAGSAGQFESQGMRFAANGYPAEYVKTFEYDTISWALVVETDMLFSGLGSEFGLNISQIIDPETLDKILSKSRERLIDETFSRLDRVIDEALAESGADKVDLVGHSMGTFFLVRYVNSSPERAAKVAHLILLDGVWGVDAPEGIPTLAVFGNPKALPALGLPEEKVVYNATNVYFNNMTHVQLCTSPETFAVMFEFINGYKPATTDIVPQDGDYVKVKGKFLAFATNGDVSGWLSIYPIDENGKRLTRLPVKFMRVKGDFEVRLRKGQLYEFQFRKDFSPIIYHYYRAPFVRDDLWARFLVSKPPLDVELLILPERLSPAAKETSGLLLIRYKEMIGEYDEEIGGVDEVYVNGVNVCTERICPIERAVNGLWVFDRGADGKSDLDREVVRYSIMPFMSAADLVVPAEGTISIAVKSRTGGEESFTIPAWSADRHSIIVQFSDYIVDKLAAALEH” was “soluble”; that for “GPGSMRSVIRSCVIFPAAGVAMRHDSSQQWVLNVMYGTGLAPRYGSWKSFGVGDALKENDTPVLYCKALVHASGGGRRARDWVAGCSAALFPSYELLKIAMRHNSSEEDVERYRRHLVETLEKAQGPQTGSANDAGNVTSGEDGSKSDTENDTDINMRLSQMPEVRCFVYDAMRAACFHRYKKVPEEQRVKLFTVAARLGLDEGTTMAIWRLVEKEGIVARDKQRALESPWND” was “soluble”. The value for “DTVKIDANVNYQIIQGFGGMSGVGWINDLTTEQINTAYGSGVGQIGLSIMRVRIDPDSSKWNIQLPSARQAVSLGAKIMATPWSPPAYMKSNNSLINGGRLLPANYSAYTSHLLDFSKYMQTNGAPLYAISIQNEPDWKPDYESCEWSGDEFKSYLKSQGSKFGSLKVIVAESLGFNPALTDPVLKDSDASKYVSIIGGHLYGTTPKPYPLAQNAGKQLWMTEHYVDSKQSANNWTSAIEVGTELNASMVSNYSAYVWWYIRRSYGLLTEDGKVSKRGYVMSQYARFVRPGALRIQATENPQSNVHLTAYKNTDGKMVIVAVNTNDSDQMLSLNISNANVTKFEKYSTSASLNVEYGGSSQVDSSGKATVWLNPLSVTTFVSK” was “soluble”. The value for “MSQYNPTTADFEALLMQSFQTNDLNEGSVVKGRVIAIEKDMAIIDAGLKVEGRIPLKEFGAKGKDGSLQIGDEVEVYIERIENAMGEAVLSREKARREESWIRLEEKFNAGARVDGVIFSQVKGGFTVDLDGAVAFLPRSQVDIRPIRDVSPLMHNSQSFEILKMDRRRGNIVVSRRTVLEESRAEQRSEIVQNLEENQIVEGVVKNITDYGAFVDLGGIDGLLHVTDMAWRRVNHPSEILTIGQTIKVQIIRINQDTHRISLGMKQLESDPWESISARYPVGKKITGAVTNITDYGGFVEIEPGIEGLIHVSEMSWTKKNVHPGKILSTSQEVEVVILEIDPSKRRISLGLKQTFENPWVAFANKFPVNSQIEGEVKNKTEFGLFIGLEGDVDGMVHLSDLDWNRPGEQVIDTYNKGDIVKAVVLDVDIEKERISLGIKQLSSDKVGEAAASGELRKGAVVTCEVTAVNDNGIDVKLTDHNLETTIRRTDLARDRDEQRPERFSIGQRVDARITAFDKKTRKLSVSIKALEIAEEKEAVAQYGSTDSGASLGDILGAALKKQEQDLEHHHHHH” was “soluble”; that for “MGSDKIHHHHHHMNNFFTRVDNLSRLSVEKHNVAFSLFDWPAHIAEDTWWQSPDVLSIALTDHIEQWDEAQLIKLAKWECINSFSLNYTGELELIQEVSRILDKVALSDAREYLYHLIDEENQHMWYFQKFCRAYGGKVYPNKKFQIEKQLMSPAKEHFLVFARILIFEEIGHYYNIQNARDSRVHPFVREINEAHYKDESRHIAYGRQVLEHLAKDAITDEGDALWLGQQLDKSIAINIAALYNPQAYRDAGITKGMALRESLLNHPNRIELHETKLLGSFKRHAERLGITLTDTRK” was “not soluble”. Turning to “MLPRAEQKQQTRRALLDAAHQLMESGRGFGSLSLREVARTAGIVPTGFYRHFEDMDQLGLALVIEVGQTFRETIRLVRHNEFAMGGLIRASVKIFLERVAANRSQFLFLAREQYGGSLKVRQALGALREGISADLTADLAKMPKWQHLNADALSIIADLVVKSVFAMLPELIDPPPASLAPHLTPQAKITQQLRFIFIGARHWRGLGTHD”, the “soluble on expression in E. coli” value is recorded as “not soluble”.
